In the RNAGym collection of RNA variant scans (doi:10.7554/elife.80360) one finds self-cleavage data, which are given here for 38 variants.

The labels stand for the following.
B1: Hairpin Ribozyme (parent)
chain: GUCCUCUUUCACGUGCGCGUGAAAGAGAGAAGUGAACCAGAGAAACACACGUUGUGGUAUAUUACCUGGUA

This series covers variants of B1. The series is described as follows: self-cleavage, relative activity (ratio to wild type); higher = more cleavage; co-transcriptional.
As for GUCCUCUUUCAUGUGCGCCUGAAAGAGAGAAGUGAACCAGAGAAACACACGUUGUGGUAUAUUACCUGGUA [C12U G19C], the self-cleavage was found to be 0.955.

Consider GUCCUCUUUCAUGUGCGCGUGAAAGAGAGAAGUGAACCAGAGAAACACACGUUGUGGUAUAUUACCUGGUU [C12U A71U], for which the self-cleavage worked out at 0.656. As for GUCCUCUUUCAUGUGCGCGUGAAAGAGAGAAGUGAACCAGAGAAACACACGUUGUGGUAUAUUACCUGGUC [C12U A71C], the figure is 1.31; as for GUCCUCUUUCAUGUGCGCGUGAAAGAGAGAAGUGAACCACAGAAACACACGUUGUGGUAUAUUACCUGGUA [C12U G40C], 0.194; as for GUCCUCUUUCAUGUGCGCGUGAAAGAGAGAAGUGAACCAAAGAAACACACGUUGUGGUAUAUUACCUGGUA [C12U G40A], 0.358. Consider GUCCUCUUUCAUGUGCGCGUGAAAGAGAGAAGUGAACCAGAGAAACACGCGUUGUGGUAUAUUACCUGGUA [C12U A49G], for which the self-cleavage turned out to be 0.564. To GUCCUCUUUCAUGUGCCCGUGAAAGAGAGAAGUGAACCAGAGAAACACACGUUGUGGUAUAUUACCUGGUA [C12U G17C] belongs 0.578; to GUCCUCUUUCAUGUGCACGUGAAAGAGAGAAGUGAACCAGAGAAACACACGUUGUGGUAUAUUACCUGGUA [C12U G17A], 0.91; to GUCCUCUUUCAUGUGCGCGUGAAAGAGAGAAGUGAACCAGAGAACCACACGUUGUGGUAUAUUACCUGGUA [C12U A45C], 0.201. For GUCCUCUUUCAUGUGCGCGUGAAAGAGAGAAGUGAACCAGAGAAACACACGUUCUGGUAUAUUACCUGGUA [C12U G54C], the self-cleavage was found to be 0.47. With GUCCUCUUUCAUGUGCGCGUGAAAGAGAGAAGUGAACCAGAGAAACACACCUUGUGGUAUAUUACCUGGUA [C12U G51C], the self-cleavage was found to be 0.809. With GUCCUCUUUCAUGUGCGCGUGAAAGAGAGAAGUGAACCAGAGAAACACACAUUGUGGUAUAUUACCUGGUA [C12U G51A], the self-cleavage turned out to be 1.01.

Regarding GUCCUCUUUCAUGUGCGCGUGAAAGAGAGAAGUGAACCAGAGAAACACACUUUGUGGUAUAUUACCUGGUA [C12U G51U], the self-cleavage is 0.872. In the case of GUCCUCUUUCAUGUGCGCGUGAAAGAAAGAAGUGAACCAGAGAAACACACGUUGUGGUAUAUUACCUGGUA [C12U G27A], the self-cleavage was 0.328. As for GUCCUCUUUCAUGUGCGCGUGAAAGAGAGAAGUGAAUCAGAGAAACACACGUUGUGGUAUAUUACCUGGUA [C12U C37U], the figure is 0.504. For the variant GUCCUCUUUCAUGUGCGCGUCAAAGAGAGAAGUGAACCAGAGAAACACACGUUGUGGUAUAUUACCUGGUA [C12U G21C], the self-cleavage came out at 0.651. As for GUCCUCUUUCAUGUGCGCGUUAAAGAGAGAAGUGAACCAGAGAAACACACGUUGUGGUAUAUUACCUGGUA [C12U G21U], the figure is 0.672; as for GUCCUCUUUCAUGUGCGCGUGAAAGAGAGAAGUGAACCAGAGAAACACACGUUGUGGUAUAUUCCCUGGUA [C12U A64C], 0.148.

Regarding GUCCUCUUUCAUGUGCGCGUGAAAGAGAGAAGUGAACCAGAGAAACACAGGUUGUGGUAUAUUACCUGGUA [C12U C50G], the self-cleavage came to 0.231. To GUCCUCUUUCAUGUGCGCGUGAAAGAGAGAAGUAAACCAGAGAAACACACGUUGUGGUAUAUUACCUGGUA [C12U G34A] belongs 1.19; to GUCCUCUUUCAUGUGCGCGUGAAAGAGAGAAGUCAACCAGAGAAACACACGUUGUGGUAUAUUACCUGGUA [C12U G34C], 1.14. To GUCCUCUUUCAUGUGCGCGUGAAACAGAGAAGUGAACCAGAGAAACACACGUUGUGGUAUAUUACCUGGUA [C12U G25C] belongs 0.511; to GUCCUCUUUCAUGUGCGCGUGAAAUAGAGAAGUGAACCAGAGAAACACACGUUGUGGUAUAUUACCUGGUA [C12U G25U], 0.52. To GUCCUCUUUCAUGUGCGAGUGAAAGAGAGAAGUGAACCAGAGAAACACACGUUGUGGUAUAUUACCUGGUA [C12U C18A] belongs 1.01; to GUCCUCUUUCAUGUGCGCGUGAAAGAGACAAGUGAACCAGAGAAACACACGUUGUGGUAUAUUACCUGGUA [C12U G29C], 0.133.

As to GUCCUCUUUCAUGUGCGCGUGAAAGAGAUAAGUGAACCAGAGAAACACACGUUGUGGUAUAUUACCUGGUA [C12U G29U], the self-cleavage was 0.0791. GUCCUCUUUCAUGUGCGCGUGAAAGAGAGAAGUGAACCAGAGAAACACACGUUGUGGUCUAUUACCUGGUA [C12U A59C]: the self-cleavage came to 0.149. As for GUCCUCUUUCAUAUGCGCGUGAAAGAGAGAAGUGAACCAGAGAAACACACGUUGUGGUAUAUUACCUGGUA [C12U G13A], the figure is 0.72; as for GUCCUCUUUCAUGUGAGCGUGAAAGAGAGAAGUGAACCAGAGAAACACACGUUGUGGUAUAUUACCUGGUA [C12U C16A], 0.735.

In the case of GUCCUCUUUCAUGUGGGCGUGAAAGAGAGAAGUGAACCAGAGAAACACACGUUGUGGUAUAUUACCUGGUA [C12U C16G], the self-cleavage turned out to be 0.78.

Turning to GUCCUCUUUCAUGUGCGCGUGAAAGAGAGAAGUGAACCAGAGAAACAGACGUUGUGGUAUAUUACCUGGUA [C12U C48G], the self-cleavage turned out to be 0.185. As to GUCCUCUUUCAUGUGCGCGUGAAAGAGAGAAGUGAACCAGAGAAAAACACGUUGUGGUAUAUUACCUGGUA [C12U C46A], the self-cleavage was found to be 0.177.

GUCCUCUUUCAUGUGCGCGUGAAAGAGAGAAGUGAACCAGAGAAAGACACGUUGUGGUAUAUUACCUGGUA [C12U C46G]: the self-cleavage came to 0.142. To GUCCUCUUUCAUGUGCGCGUGAAAGAGAGAACUGAACCAGAGAAACACACGUUGUGGUAUAUUACCUGGUA [C12U G32C] belongs 0.134; to GUCCUCUUUCAUGUGCGCGUGAAAGAGAGAAGUGAACCAGAGAAACACACGUUGUGGUAUAUUACAUGGUA [C12U C66A], 0.179; to GUCCUCUUUCAUGUGCGCGUGAAAGAGAGAAGUGAACUAGAGAAACACACGUUGUGGUAUAUUACCUGGUA [C12U C38U], 0.523. For GUCCUCUUUCAUGUGCGCGUGAAAGAGAGAAGUGAACCAGAGAAACCCACGUUGUGGUAUAUUACCUGGUA [C12U A47C], the self-cleavage was determined as 0.221. Turning to GUCCUCUUUCAUGUGCGCGUGAAAGAGAGAAGUGAACCAGAGAAACACACGUUGUGAUAUAUUACCUGGUA [C12U G57A], the self-cleavage was 0.215.
